The test system of data set [1] is LS174T-PSMA cells. Nature of the data set: in vitro binding and internalization assay. The format is cell-based, human. The following applies: for PSMA-specific membrane binding and internalization: corrected for non-specific binding (2-PMPA). As for the experimental part: The binding and internalization characteristics of the ligands were determined using LS174T-PSMA cells. Cells were cultured to confluency in 6-well plates followed by incubation with 50,000 counts per minute of ^111In-labeled ligand (0.1–0.25 pmol/well) in 1-ml RPMI + 0.5% BSA (37 °C, 2 h). Non-specific binding was determined by coincubation with 2(phosphonomethyl)-pentane-1,5-dioic acid (2-PMPA, 21.57 µM). PSMA-specific binding was defined as total binding minus the non-specific binding. To retrieve the membrane-bound fraction, cells were washed twice with PBS and incubated for 10 min at 0 °C with acid buffer (154-mM NaCl, 0.1 M acetic acid, pH 2.6). After incubation, the membrane-bound fraction was collected. Then, cells were washed and lysed with 0.1 M NaOH, and the cell lysate (intracellular activity) was collected. Intracellular and membrane-bound activity fractions were measured in a gamma-counter (2480 WIZARD^2 Automatic Gamma Counter, PerkinElmer).

A short description of data set [2]: ex vivo biodistribution of 111In-labeled ligands. Also noted: species or system BALB/c nude mice. The note with it: male, BALB/c nude, mouse, iv, 0.3 nmol, total radioactivity, 2 h p.i.; for tissue uptake at 2 h: 10 MBq/mouse, i.v. The procedure:
(§1) All animal experiments were approved by the institutional Animal Welfare Committee of the Radboud University Medical Center and were conducted in accordance to the guidelines of the Revised Dutch Act on Animal Experimentation. Animal experiments were performed in 8–10 weeks old male BALB/c nude mice (Janvier). The mice were housed in individually ventilated cages (Blue line IVC, 3–5 mice per cage), under standard non-sterile conditions with cage enrichment present. There was free access to chlorophyll-free animal chow (Sniff Voer) and water. Mice were subcutaneously inoculated with 3.0 × 10^6 LS174T-PSMA cells in the right flank and 1.5 × 10^6 LS174T WT cells in the left flank (diluted in 200-µl RPMI 1640 medium). When xenografts were approximately 0.5 cm^3 (10–14 days after injection), mice were block-randomized into groups based on tumor size. The researchers were not blinded for the experimental groups.
(§2) Mice were intravenously injected with 0.3 nmol PSMA ligand, labeled with 10 MBq ^111In (molar activity 33.3 MBq/nmol) in PBS + 0.5% (w/v) BSA. For the ex vivo biodistribution, five groups (one group for each ligand) of four mice were included. Two hours p.i., all mice were euthanized by CO2/O2-asphyxiation. For two mice of each group (2 mice/ligand), background-subtracted fluorescence images were acquired with the IVIS imaging system (Xenogen VivoVision IVIS Lumina II, PerkinElmer), with a 640-nm excitation filter and a Cy5.5 emission filter and an acquisition time of 10 s. Next, µSPECT/CT imaging was performed in the same two mice per group, with a 1.0-mm diameter pinhole mouse collimator tube (U-SPECT II, MILabs). Mice were scanned for 30 min followed by a CT scan for anatomical reference (spatial resolution 160 μm, 615 μA, 65 kV). MILabs reconstruction software was used to reconstruct the µSPECT/CT scans, via an ordered-subset expectation maximization algorithm, energy windows 154–188 keV and 220–270 keV, 3 iterations, 16 subsets, and voxel size of 0.75 mm. SPECT/CT maximum intensity projections (MIPs) were created using the Inveon Research Workplace software (Siemens Preclinical Solutions, version 4.1). NIR fluorescence images were analyzed using Living Image software (PerkinElmer, version 4.2). After imaging, relevant tissues were dissected, weighed, and measured for radioactivity in a gamma-counter (2480 WIZARD^2 Automatic Gamma Counter, PerkinElmer). In addition, a blocking experiment with PSMA-N064 and PSMA-617 was performed. Full experimental procedures and results can be found in the supplementary data (Page 5, Supplementary Fig. 3).

Data set [3] has as its system LS174T-PSMA and LS174T wildtype xenografts. Nature of the data set: ex vivo biodistribution of 111In-labeled ligands. Also on record: species or system BALB/c nude mice. The note with it: 0.3 nmol, 2 h p.i. The procedure: as §1, §2
The test system is the same in data set [4]. Nature of the data set: µSPECT/CT and NIR fluorescence imaging. The class given is in vivo, BALB/c nude mice. The note with it: 0.3 nmol, 10 MBq/mouse, 2 h p.i.
Description: as §2, with “SPECT/CT maximum intensity projections (MIPs) were created using the Inveon Research Workplace software (Siemens Preclinical Solutions, version 4.1).” left out, “In addition, a blocking experiment with PSMA-N064 and PSMA-617 was performed. Full experimental procedures and results can be found in the supplementary data (Page 5, Supplementary Fig. 3).” left out

The test system is the same in data set [5]. The experiment in a line: PSMA-N064 blocking experiment, ex vivo biodistribution. The format is in vivo, BALB/c nude mice. The following applies: 0.3 nmol, 10 MBq, i.v., 2 h p.i., n=5. As for the experimental part:
as §1
Five mice per group were intravenously injected with either 0.1 nmol PSMA-N064, 0.3 nmol PSMA-N064, 0.1 nmol PSMA-N064 + 10 nmol unlabeled PSMA-617 (100x excess) or PSMA-617. Ligands were labeled with 10 MBq ^111In in PBS+0.5% (w/v) BSA. For the ex vivo biodistribution four groups (one for each experimental condition) of five mice were included. Two hours p.i., all mice from all groups were euthanized by CO2/O2-asphyxiation and relevant tissues were dissected, weighed and measured for radioactivity in a gamma-counter (2480 WIZARD^2 Automatic Gamma Counter, PerkinElmer).

In data set [6] the test system is LS174T-PSMA cells. Also noted: method as in PMID 33408764. The following applies: head-to-head comparison; cited from earlier work.
Where [7] appears, read: LS174T wildtype tumor, n=4, read-out: Biodistribution Tumor- LS174T.
Setting [8] is: LS174T-PSMA tumor, n=4, read-out: Biodistribution Tumor+ LS174T-PSMA.
Where [9] appears, read: adrenals, n=4, read-out: Biodistribution Adrenals.
[10] abbreviates: blood, n=4, read-out: Biodistribution Blood.
Setting [11] is: bone marrow, n=4, read-out: Biodistribution Bone marrow.
The mark [12] stands for this setting: bone, n=4, read-out: Biodistribution Bone.
Where [13] appears, read: duodenum, n=4, read-out: Biodistribution Duodenum.
Where [14] appears, read: heart, n=4, read-out: Biodistribution Heart.
The mark [15] stands for this setting: kidney, n=4, read-out: Biodistribution Kidney.
Setting [16] is: liver, n=4, read-out: Biodistribution Liver.
Where [17] appears, read: lung, n=4, read-out: Biodistribution Lung.
Where [18] appears, read: muscle, n=4, read-out: Biodistribution Muscle.
The mark [19] stands for this setting: pancreas, n=4, read-out: Biodistribution Pancreas.
The mark [20] stands for this setting: prostate, n=4, read-out: Biodistribution Prostate.
The mark [21] stands for this setting: salivary glands, n=4, read-out: Biodistribution Salivary glands.
Where [22] appears, read: spleen, n=4, read-out: Biodistribution Spleen.
Setting [23] is: stomach, n=4, read-out: Biodistribution Stomach.
[24] abbreviates: tumor (LS174T-PSMA xenograft) / blood, read-out: Tumor/Blood ratio.
Setting [25] is: tumor (LS174T-PSMA xenograft) / kidney, read-out: Tumor/Kidney ratio.
[26] abbreviates: tumor (LS174T-PSMA xenograft) / liver, read-out: Tumor/Liver ratio.
Where [27] appears, read: tumor (LS174T-PSMA xenograft) / spleen, read-out: Tumor/Spleen ratio.

Read-outs that look alike come from different tables or passages of the source.

Consider `CC(=O)N[C@@H](CCCCNC(=O)CCCCCNC(=O)[C@H](CCC(=O)O)NC(=O)[C@H](CCC(=O)O)NC(=O)[C@H](Cc1ccccc1)NC(=O)[C@H](CCCCNC(=O)CCCCCNC(=O)OCCCOc1cccc2c3n4c(c12)=NC1=NC(=Nc2c5ccccc5c(n2[Si]4(O[Si](C)(C)CCC[N+](CCCS(=O)(=O)[O-])(CCCS(=O)(=O)O)CCCS(=O)(=O)O)O[Si](C)(C)CCC[N+](CCCS(=O)(=O)[O-])(CCCS(=O)(=O)O)CCCS(=O)(=O)O)N=C2N=C(N=3)c3ccccc32)c2ccccc21)NC(=O)CCC(C(=O)O)N1CCN(CC(=O)O)CCN(CC(=O)O)CCN(CC(=O)O)CC1)C(=O)O` (stereo partly drawn) [PSMA-N064inc, reference compound], for which the “PSMA-specific membrane binding and internalization” value in data set [1] was “no binding and internalization”. The tissue uptake at 2 h in data set [2] (setting [7]) amounted to 0.4 ± 0.1 %ID/g; in data set [2] (setting [8]) it was 0.5 ± 0.2 %ID/g; in data set [2] (setting [9]), 0.7 ± 0.6 %ID/g; in data set [2] (setting [10]), 0.3 ± 0.2 %ID/g; in data set [2] (setting [11]), 0.1 ± 0.03 %ID/g; in data set [2] (setting [12]) it was 0.2 ± 0.1 %ID/g. Further, the tissue uptake at 2 h was determined as 0.2 ± 0.04 %ID/g in data set [2] (setting [13]); 0.3 ± 0.1 %ID/g in data set [2] (setting [14]); 47 ± 6 %ID/g in data set [2] (setting [15]); 0.6 ± 0.1 %ID/g in data set [2] (setting [16]); 0.3 ± 0.1 %ID/g in data set [2] (setting [17]); 0.1 ± 0.1 %ID/g in data set [2] (setting [18]). The tissue uptake at 2 h in data set [2] (setting [19]) was 0.1 ± 0.04 %ID/g; in data set [2] (setting [20]), 0.6 ± 0.7 %ID/g; in data set [2] (setting [21]) it was 0.3 ± 0.05 %ID/g; in data set [2] (setting [22]) it was 0.2 ± 0.04 %ID/g; in data set [2] (setting [23]), 0.4 ± 0.1 %ID/g. The tissue to tissue ratio at 2 h in data set [2] (setting [24]) was determined as 1.5 ± 0.6; in data set [2] (setting [25]), 0.01 ± 0.003; in data set [2] (setting [26]), 0.7 ± 0.2; in data set [2] (setting [27]) it was 2.1 ± 0.5. Besides, the Tumor/Negative tumor ratio in data set [3] amounted to 1.1 ± 0.5. The Tumor/Prostate ratio in data set [3] stood at 1.3 ± 0.9. Also, in data set [3], the Tumor/Salivary gland ratio is 1.6 ± 0.5. The “renal ligand accumulation on images” value in data set [4] is recorded as “lowest”.
In the case of `O=C(O)CC[C@H](NC(=O)N[C@@H](CCCCNC(=O)[C@H](Cc1ccc2ccccc2c1)NC(=O)[C@H]1CC[C@H](CNC(=O)CN2CCN(CC(=O)O)CCN(CC(=O)O)CCN(CC(=O)O)CC2)CC1)C(=O)O)C(=O)O` [PSMA-617], the “Biodistribution Tumor+ LS174T-PSMA” value in data set [5] amounted to 19 ± 2 %ID/g. For the same molecule, the internalization ratio in data set [6] was 46%.
In the case of `C[Si](C)(CCC[N+](CCCS(=O)(=O)[O-])(CCCS(=O)(=O)O)CCCS(=O)(=O)O)O[Si]1(O[Si](C)(C)CCC[N+](CCCS(=O)(=O)[O-])(CCCS(=O)(=O)O)CCCS(=O)(=O)O)n2c3c4ccccc4c2N=C2N=C(N=c4c5c(OCCCOC(=O)NCCCCCC(=O)NCCCC[C@H](NC(=O)CN6CCN(CC(=O)O)CCN(CC(=O)O)CCN(CC(=O)O)CC6)C(=O)NCCCC[C@H](NC(=O)[C@H](CCC(=O)O)NC(=O)c6cccnc6)C(=O)NCc6ccc(C(=O)N[C@@H](Cc7ccc8ccccc8c7)C(=O)NCCCC[C@H](NC(=O)N[C@@H](CCC(=O)O)C(=O)O)C(=O)O)cc6)cccc5c(n41)=NC1=NC(=N3)c3ccccc31)c1ccccc12` [PSMA-N02], the “internalization percentage (percentage of cell-associated ligand that was internalized)” value in data set [1] (37 °C, 2 h) is on record as 73–90%. Moreover, the “PSMA-specific membrane binding and internalization” value in data set [1] was “highest membrane-bound and internalized fraction”. Further, the tissue uptake at 2 h is 0.6 ± 0.2 %ID/g in data set [2] (setting [7]); 23 ± 2 %ID/g in data set [2] (setting [8]); 1.2 ± 0.2 %ID/g in data set [2] (setting [9]); 0.5 ± 0.01 %ID/g in data set [2] (setting [10]); 0.1 ± 0.1 %ID/g in data set [2] (setting [11]); 0.5 ± 0.04 %ID/g in data set [2] (setting [12]). In addition, the tissue uptake at 2 h in data set [2] (setting [13]) came to 0.4 ± 0.05 %ID/g; in data set [2] (setting [14]), 0.4 ± 0.05 %ID/g; in data set [2] (setting [15]), 99 ± 12 %ID/g; in data set [2] (setting [16]) it was 1.1 ± 0.1 %ID/g; in data set [2] (setting [17]), 1 ± 0.3 %ID/g; in data set [2] (setting [18]), 0.2 ± 0.04 %ID/g. In addition, the tissue uptake at 2 h in data set [2] (setting [19]) was determined as 0.3 ± 0.05 %ID/g; in data set [2] (setting [20]) it was 0.5 ± 0.1 %ID/g; in data set [2] (setting [21]), 0.6 ± 0.1 %ID/g; in data set [2] (setting [22]), 1.6 ± 0.2 %ID/g; in data set [2] (setting [23]), 0.5 ± 0.1 %ID/g. Further, the tissue to tissue ratio at 2 h worked out at 43.1 ± 4.1 in data set [2] (setting [24]), 0.3 ± 0.01 in data set [2] (setting [25]), 21.6 ± 1.6 in data set [2] (setting [26]) and 14.3 ± 2.5 in data set [2] (setting [27]). Further, the Tumor/Negative tumor ratio in data set [3] turned out to be 42.2 ± 16.4. Besides, the Tumor/Prostate ratio in data set [3] worked out at 46.9 ± 13.8. For the same molecule, the Tumor/Salivary gland ratio in data set [3] came to 39.2 ± 3.7.

Values taken from article PMC9165289, “Theranostic PSMA ligands with optimized backbones for intraoperative multimodal imaging and photodynamic therapy of prostate cancer” (European Journal of Nuclear Medicine and Molecular Imaging, 2022).
